The values below come from patent publication US6436636B1, “Methods for identifying pharmacologicals for the treatment of heart failure” (Wake Forest University, priority 1995, dated 2002).

Common to all, as to assay: UV-crosslinking of recombinant p37AUF1 to radiolabeled RNA
Format in all cases: binding
Holding throughout (conditions): UV irradiation, Rnase A+T1 digestion, SDS-PAGE, autoradiography

One assay concerns c-fos ARE. From the text:
(§1) FIG. 5 represents an autoradiogram showing UV-crosslinking of purified, recombinant p37AUF1 polypeptide to human β1-AR 3′UTR RNA. Autoradiogram of recombinant p37AUF1 UV-crosslinked to radiolabeled, in vitro transcribed human β1-AR 3′UTR RNA. Lane 1, β1-AR RNA in the absence of competitor RNA. Lanes 2 and 3, β1-AR RNA is the presence of 10-fold and 100-fold molar excess of unlabeled β1-AR RNA. Lane 4, β1-AR RNA in the presence of 100-fold molar excess of rabbit β-globin RNA (Rb). Lane 5, c-fos ARE only. Lane 6, rabbit β-globin RNA only.
(§2) To show AUF1 binds to the human β1-AR 3′UTR, radiolabeled RNA was incubated with purified, recombinant p37AUF1, subjected to UV irradiation, Rnase A+T1 digestion, SDS-PAGE, and autoradiography. Recombinant p37AUF1 polypeptide binds to the β1-AR 3′UTR and to the c-fos ARE but fails to bind to rabbit β-globin (Rβ) RNA (FIG. 5).
(§3) A 0.3M KC1 ribosomal salt wash (RSW) was produced from DDT1-MF2 cells using the method of Brewer and Ross, Methods in Enzyznology 181:202-209 (1990). UV-crosslinking was performed as described in Port et al., J. Biol. Chem. 267:24103-24108 (1992) Briefly, an aliquot of radiolabeled RNA (1-4×10^6 cpm) was added to a mixture containing 20 μl of RSW (˜5×10^6 cell equivalents/μl) from DDT1-MF2 cells, 5 μg of yeast tRNA, 4 mM dithiothreitol, 5 μg heparin, and 65 units of Rnasin™ in a total volume of 50 μl. […]

The next assay relates to rabbit β-globin (Rβ) RNA.
Description: as §1, §2, §3

The test system of another assay is human β1-AR 3′UTR RNA.
Description: as §1, §2
A 919 bp cDNA fragment corresponding to the β1AR 3′ UTR was synthesized by PCR and subcloned into pcDNA3 (Invitrogen) utilizing the Xho I and Xba I restriction endonuclease sites. The resulting vector was linearized with Xba I, and in vitro transcription was performed as described in Port et al., J. Biol. Chem. 267:24103-24108 (1992). Briefly, radiolabeled RNA was synthesized using T7 DNA-directed RNA polymerase and [α-^32P]UTP (800 Ci/mmol, New England Nuclear) to produce uniformly labeled, 5′-capped RNA. […]

B1: p37AUF1: purified, recombinant p37AUF1 polypeptide (His6 fusion expressed in E. coli), A+U-rich element RNA-binding factor (protein)
chain: MSEEQFGGDGAAAAATAAVGGSAGEQEGAMVAATQGAAAAAGSGAGTGGGTASGGTEGGSAESEGAKIDASKNEEDEGKMFIGGLSWDTTKKDLKDYFSKFGEVVDCTLKLDPITGRSRGFGFVLFKESESVDKVMDQKEHKLNGKVIDPKRAKAMKTKEPVKKIFVGGLSPDTPEEKIREYFGGFGEVESIELPMDNKTNKRRGFCFITFKEEEPVKKIMEKKYHNVGLSKCEIKVAMSKEQYQQQQQWGSRGGFAGRARGRGGDQQSGYGKVSRRGGHQNSYKPY
modifications: left off: small tags and cut ends
Turning to B1, in the assay with c-fos ARE, the “binding to c-fos ARE” value is recorded as “binds”. Moreover, the “binding to rabbit β-globin (Rβ) RNA” value in the assay on rabbit β-globin (Rβ) RNA is reported as “fails to bind”. Besides, the “binding to β1-AR 3′UTR” value in the assay on human β1-AR 3′UTR RNA is “binds”.
